Assay results: patent US20240376226A1 (JANUX THERAPEUTICS, published 2024)

Molecular target: T1, CD3 (UniProt P07766 23-126)
T1 construct: also called CD3-biotin; CD3 biotin
Test: ELISA, antibody titrated on captured antigen

T1 sequence (P07766 23-126): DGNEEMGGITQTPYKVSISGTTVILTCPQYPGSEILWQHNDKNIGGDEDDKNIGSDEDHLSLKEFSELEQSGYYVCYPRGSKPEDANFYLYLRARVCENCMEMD

B1: SP34 (Ab-9, Ab-10) (antibody, mouse IgG1, V domains shown)
VH: EVQLVESGGGLVQPKGSLKLSCAASGFTFNTYAMNWVRQAPGKGLEWVARIRSKYNNYATYYADSVKDRFTISRDDSQSILYLQMNNLKTEDTAMYYCVRHGNFGNSYVSWFAYWGQGTLVTVSS
VL: QAVVTQESALTTSPGETVTLTCRSSTGAVTTSNYANWVQEKPDHLFTGLIGGTNKRAPGVPARFSGSLIGDKAALTITGAQTEDEAIYFCALWYSNLWVFGGGTKLTVLQ
notes: used naked or chemically biotinylated; also called SP34-biotin
For B1, the EC50 was < 1 nM.
